Measurements as given in patent US12366576B2, “Compositions, assays, and methods for direct modulation of fatty acid metabolism” (Dana-Farber Cancer Institute, Inc., priority 2016, dated 2025).
Bridge positions count the residues as written; N and C are the ends. Square brackets hold non-standard residues; d marks the D form. Ends that are not written are not given here. S5 = C=CCCC[C@](C)(N)C(=O)O

How the values were obtained:
[1] = molecular target: T1, native VLCAD (Mus musculus, UniProt P50544); experiment: Biotinylated SAHB pulldown from MEF lysates, anti-VLCAD Western analysis; assay type: binding; conditions: for summary of binding properties: binding to VLCAD: pull-downs and ITC
T1 construct: As for native VLCAD from MEF lysates; endogenous in cells; host or cells: SV-40-transformed wild-type mouse embryonic fibroblasts (lysate)
T1 sequence (P50544 42-656): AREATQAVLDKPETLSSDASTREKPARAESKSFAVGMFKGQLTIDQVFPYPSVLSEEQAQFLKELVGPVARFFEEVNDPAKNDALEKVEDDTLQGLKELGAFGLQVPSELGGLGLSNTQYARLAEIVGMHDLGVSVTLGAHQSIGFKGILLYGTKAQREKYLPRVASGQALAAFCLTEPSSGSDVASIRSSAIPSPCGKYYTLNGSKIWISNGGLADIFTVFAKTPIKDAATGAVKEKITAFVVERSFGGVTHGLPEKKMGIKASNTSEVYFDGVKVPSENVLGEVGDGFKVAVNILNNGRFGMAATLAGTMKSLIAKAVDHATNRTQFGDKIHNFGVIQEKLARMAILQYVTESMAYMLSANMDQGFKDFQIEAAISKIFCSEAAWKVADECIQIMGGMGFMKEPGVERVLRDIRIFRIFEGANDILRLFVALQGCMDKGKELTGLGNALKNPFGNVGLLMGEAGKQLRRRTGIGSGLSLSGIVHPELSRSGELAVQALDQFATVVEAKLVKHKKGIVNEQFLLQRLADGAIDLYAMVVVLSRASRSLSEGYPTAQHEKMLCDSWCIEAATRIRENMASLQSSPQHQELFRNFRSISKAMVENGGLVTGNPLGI
Description: To validate the MS result, the pulldowns were repeated and eluates run on a gel for anti-VLCAD Western blot analysis. […] All peptides faithfully recapitulated native BH3-binding propensities for endogenous MCL-1 protein (FIG. 8). The eluates were then probed for the other members of the acyl-CoA dehydrogenase family that manifest shorter fatty acid substrate specificities. MCL-1 SAHBD was able to pull down VLCAD, but not MCAD or SCAD (FIG. 9). Because the traditional MCL-1 staple location differs from that of the BIM, BID, and BAD SAHBs, it was important to confirm that the observed VLCAD binding specificity was due to BH3 sequence selectivity, not staple position. A BIM SAHB with the traditional MCL-1 staple (BIM SAHBF), and a MCL-1 stapled peptide with the traditional BIM staple (MCL-1 SAHBA), were generated. […] To confirm that the selective interaction between MCL-1 SAHBD and VLCAD is direct, recombinant VLCAD was generated and purified by size exclusion chromatography (FIGS. 11 and 12).
The binding determinants for the MCL-1 BH3/VLCAD interaction were investigated by generating a series of biotinylated MCL-1 SAHBD alanine point mutants (FIG. 18A) and performing streptavidin pull-downs from MEF lysates, followed by VLCAD and MCL-1 western analysis of the resulting eluates. […] Native alanines and residues not mutated are colored white. The dotted semicircles highlight the distinctive MCL-1 BH3 binding interfaces for VLCAD versus MCL-1 engagement, as defined by the differential sensitivities to alanine mutagenesis.
(§1) Wild-type MEFs were trypsinized, washed once with cold PBS, and lysed on ice with NP-40 lysis buffer (50 mM Tris, pH 7.4, 150 mM NaCl, 0.5% (v/v) NP-40, complete protease inhibitor pellet (Roche)) using 1 ml of lysis buffer for every 10 million cells lysed. Cellular debris was pelleted at 14,000 g for 10 min at 4° C., and the supernatant was quantified using the BCA Protein Assay Kit (Thermo Fisher Scientific). 2 mg of lysate per pulldown were then exposed to 50 μL of pre-equilibrated High Capacity Streptavidin Agarose beads (Thermo Fisher Scientific). The pre-cleared lysates were then incubated with 15 nmol biotinylated SAHBs (or vehicle, 1.5% (v/v) DMSO) overnight at 4° C., followed by addition of 50 μL of pre-equilibrated High Capacity Streptavidin Agarose beads for 2 hours at 4° C. The beads were then pelleted and washed with NP-40 lysis buffer three times before eluting the protein sample from the beads by heating at 70° C. for 10 min in SDS loading buffer. Samples were then subjected to electrophoresis and either Western analysis or Coomassie stain (SimplyBlue Safe Stain, Thermo Fisher Scientific). The antibodies used for Western analysis were the following: MCL-1 (Rockland 600-401-394; 1:1000 in 3% BSA), VLCAD (Thermo Fisher Scientific PA5-29959; 1:1000 in 1% milk+0.1% Tween-20), MCAD (Thermo Fisher Scientific PA5-27201; 1:1000 in 3% BSA), and SCAD (Abcam ab154823; 1:1000 in 3% BSA). Coomassie stained gels were then processed for proteomics analysis (see below). Biotinylated SAHB pulldowns of recombinant protein were performed as above incubating 5 nmol of SAHB with 10 pmol of rVLCAD in 500 μL total volume. Densitometry analyses were performed using ImageJ software.

[2] = test system: endogenous MCL-1; experiment: Biotinylated SAHB pulldown from MEF lysates, anti-MCL-1 Western analysis; assay type: binding, mouse; conditions: summary, pull-downs
Description: An exploratory proteomics analysis was conducted to identify proteins that interact with the MCL-1 BH3 domain helix. An extensive library of MCL-1 stapled BH3 peptides (FIG. 2) was generated to both identify novel protein interactors by mass spectrometry and then deploy the stapled peptide constructs as novel probes to dissect and pharmacologically modulate the identified protein interactors and associated signaling pathways. As an example, an N-terminally biotinylated stapled peptide designed based on the sequence of MCL-1's BH3 domain (Btn-MCL-1 SAHBD), or vehicle, was incubated with wild-type mouse embryonic fibroblast (MEF) lysates, followed by high stringency streptavidin capture. To validate the proteomics workflow and ensure that Btn-MCL-1 SAHBD could, in fact, engage protein interactors in a lysate, eluates were first run on a gel for anti-MCL-1 Western analysis. […] For mass spectrometry (MS) analysis, eluates were run on a reducing/denaturing gel followed by Coomassie staining (FIG. 4) and in-gel digestion was performed before injection on the instrument.
The binding determinants for the MCL-1 BH3/VLCAD interaction were investigated by generating a series of biotinylated MCL-1 SAHBD alanine point mutants (FIG. 18A) and performing streptavidin pull-downs from MEF lysates, followed by VLCAD and MCL-1 western analysis of the resulting eluates. […] Native alanines and residues not mutated are colored white.
as §1, with “The pre-cleared lysates were then incubated with 15 nmol biotinylated SAHBs (or vehicle, 1.5% (v/v) DMSO) overnight at 4° C., followed by addition of 50 μL of pre-equilibrated High Capacity Streptavidin Agarose beads for 2 hours at 4° C.” left out, “The antibodies used for Western analysis were the following: MCL-1 (Rockland 600-401-394; 1:1000 in 3% BSA), VLCAD (Thermo Fisher Scientific PA5-29959; 1:1000 in 1% milk+0.1% Tween-20), MCAD (Thermo Fisher Scientific PA5-27201; 1:1000 in 3% BSA), and SCAD (Abcam ab154823; 1:1000 in 3% BSA).” left out

endogenous MCL-1, sequence (P97287 152-308 limits assumed): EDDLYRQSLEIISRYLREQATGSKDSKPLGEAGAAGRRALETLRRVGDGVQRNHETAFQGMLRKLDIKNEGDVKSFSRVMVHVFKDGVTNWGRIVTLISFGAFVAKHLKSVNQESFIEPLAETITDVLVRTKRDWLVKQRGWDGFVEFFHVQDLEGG

Row | Substance | summary of binding properties: binding to VLCAD [1] | effect of alanine mutation on biotinylated MCL-1 SAHBD interaction with VLCAD ([1]; pull-downs from MEF lysates) | summary of binding properties: binding to MCL-1 [2]
1 | T212A: biotinylated MCL-1 SAHBD alanine point mutant T212A (RKALEALRRVGDGV[S5]RNH[S5]TAF; staple 15-19; also: biotinylated, place not given here) | Binds |  | weakly or not
2 | T226A: biotinylated MCL-1 SAHBD alanine point mutant T226A (RKALETLRRVGDGV[S5]RNH[S5]AAF; staple 15-19; also: biotinylated, place not given here) | diminished binding |  | diminished binding
3 | V216A: biotinylated MCL-1 SAHBD alanine point mutant V216A (RKALETLRRAGDGV[S5]RNH[S5]TAF; staple 15-19; also: biotinylated, place not given here) | Binds |  | weakly or not
4 | K208A: biotinylated MCL-1 SAHBD alanine point mutant K208A (RAALETLRRVGDGV[S5]RNH[S5]TAF; staple 15-19; also: biotinylated, place not given here) | enhanced binding |  | diminished binding
5 | H224A: biotinylated MCL-1 SAHBD alanine point mutant H224A (RKALETLRRVGDGV[S5]RNA[S5]TAF; staple 15-19; also: biotinylated, place not given here) | Does not bind |  | Does not bind

Second part, led by results:

Row | summary of binding properties: binding to VLCAD [1] | effect of alanine mutation on biotinylated MCL-1 SAHBD interaction with VLCAD ([1]; pull-downs from MEF lysates) | Substance | summary of binding properties: binding to MCL-1 [2]
6 | Binds |  | E211A: biotinylated MCL-1 SAHBD alanine point mutant E211A (RKALATLRRVGDGV[S5]RNH[S5]TAF; staple 15-19; also: biotinylated, place not given here) | Binds
7 | Binds |  | G217A: biotinylated MCL-1 SAHBD alanine point mutant G217A (RKALETLRRVADGV[S5]RNH[S5]TAF; staple 15-19; also: biotinylated, place not given here) | weakly or not
8 | weakly or not | uniquely disruptive | L210A: biotinylated MCL-1 SAHBD alanine point mutant L210A (RKAAETLRRVGDGV[S5]RNH[S5]TAF; staple 15-19; also: biotinylated, place not given here) | Binds
9 | Binds |  | G219A: biotinylated MCL-1 SAHBD alanine point mutant G219A (RKALETLRRVGDAV[S5]RNH[S5]TAF; staple 15-19; also: biotinylated, place not given here) | Binds
